Assays:
[1] = In vitro transcribed and translated UGTs incubated with RebA and UDP-glucose, LC-MS; type: biochemical
Experimental: In vitro transcription and translation of these genes was performed, and the resulting UGTs incubated with RebA and UDP-glucose. Following incubation, the reactions were analyzed by LC-MS. […] See LC-MS chromatograms in FIG. 4. As shown in the left panel of FIG. 4, UGT91D2e produced a trace amount of RebD when RebA was used as the feedstock.
(§1) EUGT11 was produced by in vitro transcription and translation, and incubated with various substrates in the RebD pathway. Similar experiments were carried out using in vitro transcribed and translated UGT91D2e. […] Compounds 1-3 were identified solely by mass and expected retention time. The numbers shown in FIG. 3 are the average peak height of the indicated steviol glycoside obtained from a LC-MS chromatogram, and, although not quantitative, can be used to compare the activity of the two enzymes. […] Both enzymes were able to convert steviol 19-O-monoglucoside (SMG) to compound 1, with EUGT11 being about ten times more efficient than UGT91D2e at converting 19-SMG to compound 1.
Both enzymes were able to convert RebA to RebD. However, EUGT11 was approximately 30 times better at converting RebA to RebD. Overall, it appears that EUGT11 produces more product than UGT91D2e in all reactions (with similar time, concentrations, temperature, and purity of enzyme) except the conversion of rubusoside to stevioside.

[2] = In vitro transcribed and translated UGTs incubated with 19-SMG, LC-MS; type: biochemical; conditions: average LC-MS peak height, not quantitative
Experimental: as §1

[3] = In vitro transcribed and translated UGTs incubated with rubusoside, LC-MS; type: biochemical
Experimental: as §1
The left panel of FIG. 5 contains LC-MS chromatograms of the conversion of rubusoside to stevioside. The right panel of FIG. 5 contains chromatograms of the conversion of rubusoside to stevioside, to compound 2, and to compound 3 (RebE). Conversion of rubusoside to compound 3 requires two consecutive 1, 2-O-glycosylations at the 19- and 13-positions of steviol.

[4] = Stability of EUGT11: pre-incubation before RebA to RebD reaction; type: physicochemical
Experimental: Reactions were conducted to explore the stability of EUGT11 under various RebA to RebD reaction conditions. Omitting the substrate from the reaction mixture, EUGT11 was pre-incubated for various periods of time before substrate was added. Following a pre-incubation of the enzyme in 100 mM Tris-HCl buffer, substrate (100 μM RebA) and other reaction components (300 μM UDP-glucose, and 10 U/mL Alkaline Phosphatase (Fermentas/Thermo Fisher, Waltham, MA)) were added (0, 1, 4 or 24 hours after the incubation was started). The reaction was then allowed to proceed for 20 h, after which the reactions were stopped and RebD product-formation measured. Experiments were repeated at different temperatures: 30° C., 32.7° C., 35.8° C. and 37° C.

[5] = Denaturation temperature by differential scanning calorimetry (DSC); type: physicochemical; conditions: 6HIS-purified enzymes, 91D2e-b GST-purified
Experimental: To assess the thermal stability of EUGT11 and to compare it with the other UGTs in the steviol glycosylation pathway, denaturation temperatures of the proteins were determined using differential scanning calorimetry (DSC). Use of DSC thermograms to estimate denaturation temperatures, TD, is described, for example, by E. Freire in Methods in Molecular Biology 1995, Vol. 40 191-218. DSC was performed (using 6HIS-purified EUGT11, yielding an apparent TD of 39° C.; while when GST-purified 91D2e-b was used, the measured TD was 79° C. For reference, the measured TD when using 6HIS-purified UGT74G1, UGT76G1 and UGT85C2 was 86° C. in all cases. One of skill in the art will recognize that enzyme immobilization or addition of thermal protectants can be added to the reactions to improve stability of the protein. Non-limiting examples of thermal protectants include trehalose, glycerol, ammonium sulphate, betaine, trimethylamine oxide, and proteins.

[6] = Limiting factor in RebA to RebD reaction; type: biochemical
Experimental: Under the conditions described above for EUGT11, approximately 25% of the RebA administered was converted to RebD. The limiting factor in these conditions could be either the enzyme, UDP-glucose or RebA. Experiments were set up to distinguish between these possibilities. A standard assay was allowed to run its course during 4 hours. This was followed by addition of either extra RebA substrate, extra enzyme, extra UDP-glucose or extra enzyme and UDP-glucose.
Experiments were conducted to examine the limit to this benefit of adding bolus amounts of UDP-glucose and fresh enzyme in the conversion of RebA to RebD reaction. Additional enzyme or enzyme and UDP-glucose were added after 1, 6, 24 and 28 hours. In the case of the addition of both extra EUGT11 and UDP-glucose, a conversion of more than 70% was achieved. […] Alternatively, as explained below, EUGT11 may be metabolizing the UDP-glucose.

B1: EUGT11: UDP glycosyl transferase from Oryza sativa (GenBank AC133334), SEQ ID NO:152 (protein, listed as Oryza sativa)
chain: MDSGYSSSYAAAAGMHVVICPWLAFGHLLPCLDLAQRLASRGHRVSFVSTPRNISRLPPVRPALAPLVAFVALPLPRVEGLPDGAESTNDVPHDRPDMVELHRRAFDGLAAPFSEFLGTACADWVIVDVFHHWAAAAALEHKVPCAMMLLGSAHMIASIADRRLERAETESPAAAGQGRPAAAPTFEVARMKLIRTKGSSGMSLAERFSLTLSRSSLVVGRSCVEFEPETVPLLSTLRGKPITFLGLMPPLHEGRREDGEDATVRWLDAQPAKSVVYVALGSEVPLGVEKVHELALGLELAGTRFLWALRKPTGVSDADLLPAGFEERTRGRGVVATRWVPQMSILAHAAVGAFLTHCGWNSTIEGLMFGHPLIMLPIFGDQGPNARLIEAKNAGLQVARNDGDGSFDREGVAAAIRAVAVEEESSKVFQAKAKKLQEIVADMACHERYIDGFIQQLRSYKD
[1]; LC-MS chromatograms, FIG. 4
  amount of RebD produced when RebA was used as the feedstock: significant amount
[1]; in vitro transcribed and translated enzymes, preliminary quantification
  efficiency at converting RebA to RebD compared with UGT91D2e: approximately 30 times
[2]
  efficiency at converting 19-SMG to compound 1 compared with UGT91D2e: about ten
[3]
  amount of compound 3 (RebE) produced from rubusoside: significant amount
[4]; 30° C., 4 hours
  activity after pre-incubation: not significantly reduced
[4]; 30° C., 24 hours
  activity remaining after pre-incubation: approximately one-third
[4]; 37° C., 1 hour
  activity remaining after pre-incubation: approximately half
[4]; 37° C., 4 hours
  activity remaining after pre-incubation: almost no activity
[5]
  denaturation temperature TD: 39 °C
[6]; extra EUGT11 and UDP-glucose added after 1, 6, 24 and 28 hours
  conversion of RebA to RebD: more than 70%
[6]; standard conditions for EUGT11
  RebA converted to RebD: approximately 25%
